{"source": "patent US20240425607A1", "about": "“IL-18BP ANTAGONIST ANTIBODIES AND THEIR USE IN MONOTHERAPY AND COMBINATION THERAPY IN THE TREATMENT OF CANCER” (Compugen Ltd., priority 2023, published 2024)", "molecules": {"B1": {"name": "ADI-71739: anti-IL18-BP antibody, sequences in FIG. 2K; 66716 lineage (antibody, V domains shown)", "VH": "QLQLQESGPGLVKPSETLSLTCTVSGGSISSPDYPWGWIRQPPGKGLEWIGSIYYQGATYYNPSLKSRVTISVDTSKNQFSLKLSSVTAADTAVYYCARGPYRQLFDYWGQGTLVTVSS", "VL": "DIQMTQSPSSVSASVGDRVTITCRASQGISSWLAWYQQKPGKAPKLLIYAASSLQSGVPSRFSGSGSGTDFTLTISSLQPEDFATYYCQQGSVFPYTFGGGTKVEIK"}}, "key": {"[1]": {"assay": "Fab Tm by dynamic scanning fluorimetry (DSF)", "format": "physicochemical", "settings": "optimized antibodies", "procedure": "10 μL of 20× Sypro Orange is added to 20 μL of 0.2-1 mg/mL mAb or Fab solution. A RT-PCR instrument (BioRad CFX96 RT PCR) is used to ramp the sample plate temperature from 40 to 95° C. at 0.5° C. increment, with 2 min equilibrate at each temperature. The negative of first derivative for the raw data is used to extract Tm."}, "[2]": {"assay": "SEC-HPLC % monomer", "format": "physicochemical", "settings": "optimized antibodies", "procedure": "A TSKgel SuperSW mAb HTP column (22855) was used for fast SEC analysis of mammalian produced mAbs at 0.4 mL/min with a cycle time of 6 min/run. 200 mM Sodium Phosphate and 250 mM Sodium Chloride was used as the mobile phase."}, "[3]": {"target": "T1, human IL18BP-Fc binding to human IL-18 (Homo sapiens, UniProt O95998)", "T1 sequence (O95998 31-194)": "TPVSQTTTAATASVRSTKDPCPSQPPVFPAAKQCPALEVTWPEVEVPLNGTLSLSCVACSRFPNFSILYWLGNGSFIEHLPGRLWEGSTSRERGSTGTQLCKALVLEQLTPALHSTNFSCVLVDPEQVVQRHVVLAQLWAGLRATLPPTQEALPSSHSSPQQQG", "assay": "Blocking of hIL18BP-hIL-18 interaction by ELISA, IL18BP plate bound", "settings": "1 ng/ml human IL-18, compared with clone W19089C", "procedure": "This assay was utilized to identify anti-human IL18BP Abs that inhibit the binding interaction between human IL18BP- and its counterpart, human IL-18. […] Human IL18BP-Fc protein was coated on the wells of a high binding plate overnight at 4° C. (1 μg/ml, 100 μl/well volume). Plates were washed three times with PBS-T buffer (1×PBS pH 7.4, 0.05% Tween20) incubated with 250 μL blocking buffer (2.5% skim milk in PBS) at room temperature (RT) for 2 hr. Blocking buffer was removed and plates were washed three times with PBS-T buffer. Plate-bound ligands were incubated with anti-human IL18BP Abs in 1% BSA in PBS buffer two times serially diluted (2.5-0.019 μg/ml, 100 μL/well volume) at RT for 1 h. Plates were washed one time with PBS. Plate-bound ligands were incubated with human IL-18 (cat. 9124-IL, R&D) in 1% BSA in PBS buffer (1 ng/ml, 100 μL/well volume) at RT for 1 h. Plates were washed three times with PBS-T (0.05% Tween20 in PBS). Biotinylated anti-IL18 detection antibody, cat. D045-6, R&D 1:1000 in 1% BSA in PBS buffer was added (100 μL/well). This was incubated at RT for 1 hr, and plates were washed again. Peroxidase Streptavidin, Jackson, cat. 016-030-084 1:1000 in 2.5% skim milk in PBS was added (100 μL/well) for 1 hr at RT. […] The HRP reaction was stopped by adding 50 μL 1N HCl and absorbance signals at 450 nm were read on a luminescence Reader-EnSpire (Perkin Elmar). […]"}, "[4]": {"target": "T2, recombinant human IL18-BP (Homo sapiens, UniProt O95998)", "T2 construct": "purchased R&D systems 119-BP", "T2 sequence (O95998 31-194)": "T1 sequence (O95998 31-194)", "assay": "MEL624:TIL assay", "format": "cell-based", "settings": "rhIL-18 30 ng/ml + rhIL-18BP 1 μg/ml, vs isotype control", "procedure": "Human MEL624 cells were thawed and grown in DMEM with 10% FBS, 1% Glutamax, 1% Penicillin-Streptomycin Solution and 1% HEPES buffer. The cells were then seeded at 75 k cells/well in a 96 well plate in the assay medium (IMDM with 10% human serum, 1% Glutamax, 1% MEM eagle, 1% Sodium Pyruvate and 1% Penicillin-Streptomycin Solution) and incubated 1 hour in 37° C., 5% CO2 incubator before co-culture with human tumor infiltrating lymphocytes that were previously expanded using known melanoma antigens (TILs). Human TILs were thawed in full TIL media and 75 k cells/well were co-cultured with the MEL624 cells to create an effector: target ratio of 1:1. The co-cultured cells were then treated with rhIL-18 (30 ng/ml) and rhIL-18BP (1 μg/ml) for 30 min in 37° C., 5% CO2 incubator to allow IL-18:IL-18BP complex formation. After 30 minutes, anti-human IL-18BP mAb (ADI-71722, dose titration, 30 μg/ml-0.01 μg/ml, dilution factor of 1:3) or relevant isotype control (hIgG1 30 μg/ml) were added to the co-culture to examine its capability to restore IL-18 activity. Cells and all added solutions were prepared in full assay medium to a final volume of 200 μl/well. Plates were incubated for 24 hours in 37° C., 5% CO2 incubator, after which the supernatant was collected for cytokine secretion evaluation. All tests were done in triplicates and each repeated with TIL four donors. […]"}, "[5]": {"tested_on": "MEL624 cells co-cultured with human TILs", "assay": "Killing of MEL624 melanoma cells by human TILs (IncuCyte)", "format": "cell-based", "settings": "10 μg/ml; rhIL-18 50 ng/ml + rhIL-18BP 1 μg/ml; 72 hours", "procedure": "The co-culture was monitored for 72 hours using an IncuCyte live cell imaging instrument. […] In the presence of the isotype control antibody (black), IL-18BP abrogated the effects of IL-18, while the anti-IL-18BP antibody (turquoise) was able to completely restore these effects."}, "[6]": {"target": "T3, endogenous IL-18BP (Homo sapiens, UniProt O95998)", "T3 construct": "endogenous in cells; host or cells: MEL624 cells and human TILs", "T3 sequence (O95998 31-194)": "T1 sequence (O95998 31-194)", "assay": "TIL:MEL624 co-culture with endogenous IL-18BP levels", "format": "cell-based", "settings": "5 μg/ml; IL-18 3.7 ng/ml, no added IL-18BP; 18 hours; vs isotype", "procedure": "A. Schematic representation of assay setup. MEL624 cells were co-cultured with human TILs that were previously enriched for MART1 or gp100 peptide-specific clones. […] The co-culture was set for 18 hours following which IFNg levels were measured in supernatants. […] Representative examples from two TIL donors are shown."}}, "data": [{"molecule": "B1", "values": [{"measurement": "Fab Tm (DSF, ° C.)", "setting": "[1]", "result": 73.0, "unit": "°C"}, {"measurement": "SEC-HPLC, % monomer", "setting": "[2]", "result": 94.9, "unit": "%"}, {"measurement": "Blocking effect on binding of human IL18BP to human IL-18", "setting": "[3]", "result": "superior to Biolegend Ab"}, {"measurement": "IFNγ secretion from TILs", "setting": "[4]", "result": "increase IFNγ secretion from TILs"}, {"measurement": "Killing of melanoma cells by tumor infiltrating lymphocytes", "setting": "[5]", "result": "increased killing of melanoma cells"}, {"measurement": "IFNg release by tumor infiltrating lymphocytes", "setting": "[6]", "result": "increased IFNg release"}]}]}
